Measured values as given in patent publication US20160015828A1 (AbbVie / Abbott, published 2016).

Assays:
[1] = biological target: T1, rat DLL3 over-expressed on 293 cells (rat, UniProt O88671 33-589); assay: flow cytometry, 293 cells over-expressing rat DLL3
T1 construct: whole, on cells
T1 sequence (looked up): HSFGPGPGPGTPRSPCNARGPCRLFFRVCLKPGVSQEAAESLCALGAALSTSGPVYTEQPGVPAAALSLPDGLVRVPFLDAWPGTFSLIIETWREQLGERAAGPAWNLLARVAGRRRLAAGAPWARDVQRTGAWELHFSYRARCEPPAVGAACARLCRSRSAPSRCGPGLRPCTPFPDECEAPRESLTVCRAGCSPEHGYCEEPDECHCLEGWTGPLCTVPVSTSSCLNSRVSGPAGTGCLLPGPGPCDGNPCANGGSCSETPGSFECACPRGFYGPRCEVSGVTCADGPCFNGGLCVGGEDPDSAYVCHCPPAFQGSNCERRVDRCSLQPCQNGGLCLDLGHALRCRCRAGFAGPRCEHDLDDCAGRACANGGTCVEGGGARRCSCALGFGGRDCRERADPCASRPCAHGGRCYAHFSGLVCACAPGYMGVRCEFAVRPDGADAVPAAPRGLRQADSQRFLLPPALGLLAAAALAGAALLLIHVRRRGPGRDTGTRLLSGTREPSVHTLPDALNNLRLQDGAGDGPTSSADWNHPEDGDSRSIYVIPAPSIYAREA
Protocol: (§1) In addition to evaluating the exemplary modulators as set forth above, flow cytometry was performed in order to confirm that selected SC16 antibody modulators can immunospecifically associate with human DLL3 and to determine whether the same antibodies cross-react with cynomolgus, rat and/or murine DLL3. More particularly the exemplary murine antibodies were analyzed by flow cytometry using a FACSCanto II and 293 cells over-expressing murine, rat, cynomolgus or human DLL3. In some cases, exemplary murine modulators were analyzed by flow cytometry using a FACSCanto II and yeast cells displaying cynomolgus DLL3 using the methods described by Cochran et al. (J Immunol Methods. 287 (1-2):147-158 (2004).

human DLL3 [2] = biological target: T2, human DLL3 (UniProt Q9NYJ7 27-492); assay: SPR (Biacore)
T2 chain: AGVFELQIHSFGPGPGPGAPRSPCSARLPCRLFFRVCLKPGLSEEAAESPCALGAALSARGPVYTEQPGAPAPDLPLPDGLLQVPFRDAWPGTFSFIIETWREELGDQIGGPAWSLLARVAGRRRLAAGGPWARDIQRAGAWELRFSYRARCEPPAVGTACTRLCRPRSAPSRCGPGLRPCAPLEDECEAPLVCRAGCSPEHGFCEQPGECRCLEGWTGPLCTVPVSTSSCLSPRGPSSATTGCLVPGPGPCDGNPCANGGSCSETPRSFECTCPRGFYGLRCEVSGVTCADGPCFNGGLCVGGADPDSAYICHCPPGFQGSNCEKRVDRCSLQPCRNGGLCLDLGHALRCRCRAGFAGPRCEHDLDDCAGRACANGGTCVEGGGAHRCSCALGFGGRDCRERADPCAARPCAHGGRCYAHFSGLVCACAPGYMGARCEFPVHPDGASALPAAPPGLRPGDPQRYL

[3] = biological target: T3, human DLL3 over-expressed on 293 cells (human, UniProt Q9NYJ7 27-618); assay: flow cytometry, 293 cells over-expressing human DLL3
T3 construct: identical extracellular and transmembrane regions; also called hDLL3; Delta-like ligand 3
T3 sequence: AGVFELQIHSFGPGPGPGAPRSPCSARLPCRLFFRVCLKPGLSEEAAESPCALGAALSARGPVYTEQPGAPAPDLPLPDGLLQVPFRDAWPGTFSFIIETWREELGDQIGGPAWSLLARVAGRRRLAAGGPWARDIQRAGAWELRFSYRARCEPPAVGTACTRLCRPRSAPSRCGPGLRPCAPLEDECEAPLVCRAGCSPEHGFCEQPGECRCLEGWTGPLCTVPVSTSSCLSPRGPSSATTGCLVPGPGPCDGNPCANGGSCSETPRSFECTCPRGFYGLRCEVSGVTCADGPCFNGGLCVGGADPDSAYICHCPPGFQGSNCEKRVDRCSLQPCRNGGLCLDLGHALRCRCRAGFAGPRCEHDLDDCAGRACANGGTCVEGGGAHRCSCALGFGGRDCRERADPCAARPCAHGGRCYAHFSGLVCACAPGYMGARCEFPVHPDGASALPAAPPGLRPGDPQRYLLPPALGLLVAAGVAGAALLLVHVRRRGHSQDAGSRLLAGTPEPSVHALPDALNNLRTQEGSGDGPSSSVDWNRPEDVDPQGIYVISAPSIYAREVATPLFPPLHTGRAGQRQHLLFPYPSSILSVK
Protocol: as §1

human DLL3 [4] = biological target: T2, human DLL3; assay: BLI (ForteBio)
human DLL3 [5] = biological target: T2, human DLL3; assay: BLI (ForteBio)

| Binder | binding result [1] | Kd (human DLL3 [2]) [nM] | binding result [3] | Kd (human DLL3 [4]) [nM] | Kd (human DLL3 [5]) [nM] |
| --- | --- | --- | --- | --- | --- |
| SC16.56 (antibody, V domains shown, murine mAb; V regions only) VH: QIQLVQSGPELKKPGETVKISCKASGYTFTNYGMNWVKQAPGKGLKWMAWINTYTGEPTYADDFKGRFAFSLETSASTASLQIINLKNEDTATYFCARIGDSSPSDYWGQGTTLTVSS VL: SIVMTQTPKFLLVSAGDRVTITCKASQSVSNDVVWYQQKPGQSPKLLIYYASNRYTGVPDRFAGSGYGTDFSFTISTVQAEDLAVYFCQQDYTSPWTFGGGTKLEIR | binds | 1 | binds | – | – |
| SC16.34 (antibody, V domains shown, murine mAb; V regions only) VH: QIQLVQSGPELKRPGETVKISCKASGYTFTNYGMNWVKQAPGKGLKWMGWINTYTGDPTYADDFKGRFAFSLETSASTAYLQINNLKNEDTATYFCARIGGNSPSDYWGQGTSLTVSS VL: SIVMTQTPKFLLVSAGDRVTITCKASQSVSNDVAWYQQKPGQSPKLLIYYASNRYSGVPDRFTGSGYGTDFTFTISTVQAEDLAVYFCQQDYSSPWTFGGGTKLEIK | binds | 0.2 | binds | – | – |
| SC16.25 (antibody, V domains shown, murine mAb; V regions only) VH: QVTLKESGPGILQPSQTLSLTCSFSGFSLSTSGMGVGWIRQPSGEGLEWLTDIWWDDNKYYNPSLKSRLTISKDTSSNQVFLNITSVDTADTATYYCARRVNYYYDPYYAMDYWGQGTSVTVSS VL: QIVLTQSPAIMSASPGEKVTMTCSASSSVSYMHWYQQKSGTSPKRWIYDSSKLASGVPARFSGSGSGTSYSLTISSMEAEDAATYYCQQWSSNPLTFGAGTKLELK | – | 0.2 | binds | – | – |
| SC16.10 (antibody, V domains shown, murine mAb; V regions only) VH: QVTLKESGPGILQSSQTLSLTCSFSGFSLSTSGMGVGWIRQPSGKGLEWLAHIWWDDVKRYNPVLKSRLTISKDTSSSQVFLKIASVDTADTATYYCARLVDDLYYFDYWGQGTTLTVSS VL: QIVLTQSPAIMSASLGERVTMTCTASSSVSSSYLHWYQQKPGSSPKLWIYSTSNLASGVPTRFSGSGSGTSYSLTISSMEAEDAATYYCHQYHRSPFTFGSGTKLEIK | – | – | binds | 4 | – |
| SC16.8 (antibody, V domains shown, murine mAb; V regions only) VH: QAQLQQSGAELVRPGTSVKVSCKASGYAFTNYLIEWVKQRPGQGLEWIGVINPGTGGTNYNENFKGKATLTADKSSSTAYMQLSSLTSDDSAVYFCARSPYDYHEGAMDYWGQGTSVTVSS VL: EIQMTQSPSSMSASLGDRITITCQATQDIVKNLNWYQQKPGKPPSFLIYYAIELAEGVPSRFSGSGSGSDYSLTISNLESEDFADYYCLQFYEFPFTFGAGTKLELK | binds | – | binds | 0.5 | – |
| SC16.65 (antibody, V domains shown, murine mAb; V regions only) VH: QVTLKESGPGILQPSQTLSLTCSFSGFSLSTSGMGVGWIRQPSGKGLEWLALIWWDDVKRYNPALKSRLTISKDASSSQVFLKIASVDTADTATYYCARIASYDYDVVYAMDYWGQGTSVSVSS VL: QIVLTQSPALMSASPGEKVTMTCSVTSSVSYMYWYQQKPRSSPKPWIYLTSNLASGVPARFSGSGSGTSYSLTISSVEAEDAATYYCQQWRNNPFTFGSGTKVEIK | – | 0.9 | binds | – | – |
| SC16.13 (antibody, V domains shown) VH: QVTLKESGPGILQPSQTLSLTCSFSGFSLSTSGMGVGWIRQPSGKGLEWLAHIWWDDVKRYNPALKSRLTISKDTSSSQVFLKIASVDTADTATYYCARIVSFDNDVVSAMDYWGQGTSVTVSS VL: QIVLTQSPALVSASPGEKVTMTCSASSSVSYMYWYQQKPRSSPKPWIYLTSNLASGVPARFSGSGSGTSYSLTISSMEAEDAATYYCQQWRSNPFTFGSGTKLEIK | – | 2 | – | – | – |
| SC16.67 (antibody, V domains shown) VH: EVQLVETGGGLVQPKGSLKLSCAVSAFTFTTYAMNWVRQAPGKGLEWVARIRNKSNNYATYYADSVKDRFTISRDDSQSMLYLQMNNLKIEDTAMYYCVFYYDYVYWGQGTLVTVSA VL: QAVVTQESALTTSPGETVTLTCRSSTGAVTTSNYANWIQEKPDHLFTGLIGGTNNRAPGVPARFSGSLIGDKAALTITGAQTEDEAIYFCGLWYSNHLVFGGGTKLTVL | – | – | – | 0.5 | – |
| SC16.15 (antibody, V domains shown, murine mAb; V regions only) VH: QVQLQQSGAELAKPGASVKMSCKASGYTFTRYWIHWIKQRPGQGLEWIGYINPTTVYTEFNQNFKDKATLTADKSSTTASMQLSSLTSEDSAVYYCARGGSNFFDYWGQGTTLTVSS VL: DIQMTQSPASLAASVGETVAITCRASENIYYNLAWYQQKQGKSPQLLIYTANSLEDGVPSRFSGSGSGTQYSLKINSMQPEDSATYFCKQAYDVPPTFGGGTKLEIK | binds | 0.5 | binds | – | – |
| SC16.7 (antibody, V domains shown, murine mAb; V regions only) VH: EVQLQQSGPELVKPGASVKISCKASGYSFTGYKMHWVKQSHVKSLEWIGRINPYNGATSYNQNFKDKATLTVDKSSSTAYMDLHSLTSEDSAVYFCARGDYRYDWFAYWGQGTLVTVSA VL: NIMMTQSPSSLAVSAGEKVTMSCKSSQSVLYSSNQKNYLAWYQQKPGQSPKLLIYWASTRESGVPDRFTGSGSGTDFTLTISTVQVEDLAVYYCHQYLSSWTFGGGTKLEIK | – | – | binds | – | – |
| SC16.4 (antibody, V domains shown, murine mAb; V regions only) VH: QIQLVQSGPELKKPGETVKISCKASGYTFTDYSMHWVKQAPGKGLKWMGWINTETGEPGYADDFKGRFAFSLETSASTAYLQINNLKNEDTATYFCARYDGYAMDYWGQGTSVTVSS VL: DIQMTQTTSSLSASLGDRVTISCRASQDISNYLNWYQQKPDGTVKLLIYYTSRLHSGVPSRFSGSGSGTDYSLTISNLELEDIATYFCQQGDMLPWTFGGGTKLEIK | binds | – | binds | 0.5 | – |
| SC16.39 (antibody, V domains shown) VH: EVKLEESGGGLVQFGGSMKLSCAASGFTFSDAWMDWVRQSPEKGLEWVAEIRNKANNHATYYPESVKGRFTISRDDSKSRVYLQMNNLRAEDTGIYYCTGYSSFAYWGQGTLVTVSA VL: DIQMTQTTSSLSASLGDRVTISCRASQDVINYLNWYQQKPDGTVKLLIYYTSRLHSGVPSRFSGSGSRTDYSLTISNLEPEDIATYYCQQYSERPYTFGGGTKLEIK | – | – | – | – | 1 |
